Experimental findings from paper PMC5727386 are described below.

The target in assay [1] is Tyrosine phosphatase Sts1, Q8BGG7. Nature of the assay: co-immunoprecipitation (anti-Bcr-Abl/Abl IP, Sts1 immunoblot, quantified). Conditions: chain shown with the change; BaF3 cells stably transduced with the Bcr-Abl variants; parent: est. 1.0; read off a plot. Background: Immunoblotting shows a protein as a band on a membrane.
Assay [2] addresses monobody Mb(Bcr-PH_4), displayed on yeast surface. Nature of the assay: flow cytometry on cells; monobody displayed on yeast surface; biotinylated target 10 nM to 1 uM in TBS with 0.1% BSA, 30 min at RT; streptavidin-DyLight650; 1:1 binding model; apparent Kd.

Where a chain is given by its changes, count along the chain named. Numbers in names are those of the source.

Chain of Tyrosine phosphatase Sts1, Q8BGG7 (Q8BGG7 whole entry): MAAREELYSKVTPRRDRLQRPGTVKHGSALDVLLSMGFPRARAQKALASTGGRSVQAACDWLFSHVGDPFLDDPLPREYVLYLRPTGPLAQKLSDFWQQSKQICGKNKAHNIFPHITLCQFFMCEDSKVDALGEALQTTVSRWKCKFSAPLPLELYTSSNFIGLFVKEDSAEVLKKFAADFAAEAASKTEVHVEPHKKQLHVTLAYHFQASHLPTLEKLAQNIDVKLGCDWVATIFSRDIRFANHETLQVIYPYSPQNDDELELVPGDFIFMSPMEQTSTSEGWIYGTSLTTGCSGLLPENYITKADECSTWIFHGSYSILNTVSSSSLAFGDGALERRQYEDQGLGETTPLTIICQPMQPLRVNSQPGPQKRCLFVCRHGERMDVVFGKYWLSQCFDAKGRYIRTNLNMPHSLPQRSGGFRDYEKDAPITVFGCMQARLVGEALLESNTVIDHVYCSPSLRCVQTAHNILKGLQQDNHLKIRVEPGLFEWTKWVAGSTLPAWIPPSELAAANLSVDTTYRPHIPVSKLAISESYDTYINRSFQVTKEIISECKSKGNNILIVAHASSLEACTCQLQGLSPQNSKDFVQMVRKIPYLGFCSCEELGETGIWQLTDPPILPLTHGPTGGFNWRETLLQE

B1: Bcr-Abl p210, P11274 R726A (protein)
chain: MVDPVGFAEAWKAQFPDSEPPRMELRSVGDIEQELERCKASIRRLEQEVNQERFRMIYLQTLLAKEKKSYDRQRWGFRRAAQAPDGASEPRASASRPQPAPADGADPPPAEEPEARPDGEGSPGKARPGTARRPGAAASGERDDRGPPASVAALRSNFERIRKGHGQPGADAEKPFYVNVEFHHERGLVKVNDKEVSDRISSLGSQAMQMERKKSQHGAGSSVGDASRPPYRGRSSESSCGVDGDYEDAELNPRFLKDNLIDANGGSRPPWPPLEYQPYQSIYVGGMMEGEGKGPLLRSQSTSEQEKRLTWPRRSYSPRSFEDCGGGYTPDCSSNENLTSSEEDFSSGQSSRVSPSPTTYRMFRDKSRSPSQNSQQSFDSSSPPTPQCHKRHRHCPVVVSEATIVGVRKTGQIWPNDGEGAFHGDADGSFGTPPGYGCAADRAEEQRRHQDGLPYIDDSPSSSPHLSSKGRGSRDALVSGALESTKASELDLEKGLEMRKWVLSGILASEETYLSHLEALLLPMKPLKAAATTSQPVLTSQQIETIFFKVPELYEIHKEFYDGLFPRVQQWSHQQRVGDLFQKLASQLGVYRAFVDNYGVAMEMAEKCCQANAQFAEISENLRARSNKDAKDPTTKNSLETLLYKPVDRVTRSTLVLHDLLKHTPASHPDHPLLQDALRISQNFLSSINEEITPRRQSMTVKKGEHRQLLKDSFMVELVEGARKLAHVFLFTDLLLCTKLKKQSGGKTQQYDCKWYIPLTDLSFQMVDELEAVPNIPLVPDEELDALKIKISQIKNDIQREKRANKGSKATERLKKKLSEQESLLLLMSPSMAFRVHSRNGKSYTFLISSDYERAEWRENIREQQKKCFRSFSLTSVELQMLTNSCVKLQTVHSIPLTINKEDDESPGLYGFLNVIVHSATGFKQSSNLYCTLEVDSFGYFVNKAKTRVYRDTAEPNWNEEFEIELEGSQTLRILCYEKCYNKTKIPKEDGESTDRLMGKGQVQLDPQALQDRDWQRTVIAMNGIEVKLSVKFNSREFSLKRMPSRKQTGVFGVKIAVVTKRERSKVPYIVRQCVEEIERRGMEEVGIYRVSGVATDIQALKAAFDVNNKDVSVMMSEMDVNAIAGTLKLYFRELPEPLFTDEFYPNFAEGIALSDPVAKESCMLNLLLSLPEANLLTFLFLLDHLKRVAEKEAVNKMSLHNLATVFGPTLLRPSEKESKLPANPSQPITMTDSWSLEVMSQVQVLLYFLQLEAIPAPDSKRQSILFSTEV
Turning to B1, the ratio to parent in assay [1] was found to be 0.34.

B2: Bcr-Abl p210, P11274 R723A; K724A (protein)
chain: B1 chain with R723A, K724A, A726R
With B2, in assay [1], the ratio to parent turned out to be 0.53.

B3: biotinylated Bcr-Abl PH domain (Avi-tag) (domain or fragment)
chain: GEHRQLLKDSFMVELVEGARKLRHVFLFTDLLLCTKLKKQSGGKTQQYDCKWYIPLTDLSFQMVDELEAVPNIPLVPDEELDALKIKISQIKNDIQREKRANKGSKATERLKKKLSEQESLLLLMSPSMAFRVHSRNGKSYTFLISSDYERAEWRENIREQQKKCFRSFSLTSVELQMLTNSCVKLQTVH
modifications: biotin on the Avi-tag
In the case of B3, the Kd in assay [2] is 33 nM.
